Test results reported in patent publication US7282556B2, “Polynucleotides and polypeptides relating to the modulation of SIRPα-CD47” (Emory University, priority 2001, dated 2007).

Molecular target: T1, CD47-SIRPα1 binding (CD47-AP / SIRPα1-GST) (Homo sapiens, UniProt P78324)
T1 construct: Microtiter plates were coated with SIRPα1 extracellular domain fusion protein (SIRPα1-GST, 1 μg/ml) for 2 hr; A construct consisting of the extracellular domain of human CD47 fused to the catalytic domain of human placental AP; made in house
Assay: CD47-AP binding to immobilized SIRPα1-GST (alkaline phosphatase activity)
Settings: SIRPα-GST coated 2 μg/ml, CD47-AP 1-2 μg/ml
Description: FIG. 2C (right panel) is a bar graph that illustrates CD47-AP specifically binds to SIRPα-GST fusion protein but not SIRPβ-GST. In this panel, microtiter plates were coated with either SIRPα-GST or highly similar SIRPβ-GST (10 μg/ml) followed by blocking with BSA. To each well was then added recombinant CD47-AP followed by washing. Bound CD47-AP was then detected by assay for alkaline phosphatase after addition of appropriate substrate.
FIGS. 6A-6C are graphs that illustrate the effects of synthetic peptides on CD47-SIRPα binding. FIG. 6A illustrates the effect of peptide C5/D5.1 on CD47-SIRPα binding. […] After blocking, CD47-AP was added in the absence or presence of synthetic peptides C5/D5.1 and control peptides C5/D5.4, C5/D5.11 and C5/D5.12 (used as 1 mM each). “*” p<0.01. CD47-AP binding was then detected by assay of alkaline phosphatase activity and normalized with respect to binding in the absence of any peptide (CD47-AP only). FIG. 6B illustrates the effect of dose-dependent inhibition of CD47-SIRPα1 binding by peptide C5/D5.1 performed as in FIG. 6A but with increasing concentrations of peptide as indicated. […] Binding of these proteins were detected by a goat anti-GST antibody followed by peroxidase conjugated anti-goat secondary (for detecting SIRPα1-GST) or directly developed for alkaline phosphatase activity (for detecting CD47-AP). […]

T1 sequence (P78324 31-373 limits assumed): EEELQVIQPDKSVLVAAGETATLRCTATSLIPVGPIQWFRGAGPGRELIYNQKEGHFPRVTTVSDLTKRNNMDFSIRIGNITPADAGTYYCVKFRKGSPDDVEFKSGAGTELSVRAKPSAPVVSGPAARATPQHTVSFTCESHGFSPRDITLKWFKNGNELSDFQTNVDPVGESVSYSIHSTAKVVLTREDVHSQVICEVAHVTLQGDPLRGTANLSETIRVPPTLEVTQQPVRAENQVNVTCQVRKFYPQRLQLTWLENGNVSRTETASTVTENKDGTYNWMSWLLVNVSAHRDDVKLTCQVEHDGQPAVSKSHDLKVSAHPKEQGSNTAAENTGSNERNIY

B1: JAM-AP: control AP fusion protein containing the extracellular domain of junction adhesion molecule (protein)
chain: SVTVHSSEPEVRIPENNPVKLSCAYSGFSSPRVEWKFDQGDTTRLVCYNNKITASYEDRVTFLPTGITFKSVTREDTGTYTCMVSEEGGNSYGEVKVKLIVLVPPSKPTVNIPSSATIGNRAVLTCSEQDGSPPSEYTWFKDGIVMPTNPKSTRAFSNSSYVLNPTTGELVFDPLSASDTGEYSCEARNGYGTPMTSNAVRMEAVERNVGV
modifications: left off: large carriers
notes: control AP fusion protein containing the extracellular domain of junction adhesion molecule
In the case of B1, the “binding of AP fusion protein to SIRPα-GST (AP activity, OD405)” value is reported as “absence of binding”.
